Measured values published in patent US20130101582A1, “Tiki1 and Tiki2, Wnt Inhibitors” (CHILDREN'S MEDICAL CENTER CORPORATION, priority 2010, published 2013).

Columns and labels:
mFz8CRD-IgG = molecular target: T1, mFz8CRD-IgG (Mus musculus, UniProt Q61091); assay: Binding of Wnt3a CM to mFz8CRD-IgG, protein G precipitation
T1 construct: using the extracellular domain of mouse Fz8 (mFz8CRD-IgG) or LRP6 (LRP6N-IgG)
T1 sequence (Q61091 30-151 limits assumed): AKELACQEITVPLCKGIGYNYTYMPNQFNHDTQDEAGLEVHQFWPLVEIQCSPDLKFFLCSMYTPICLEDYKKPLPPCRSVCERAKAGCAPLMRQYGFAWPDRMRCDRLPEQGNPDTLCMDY
Description: Wnt3a CM was incubated with LRP6N-IgG or mFz8CRD-IgG. The protein complexes were precipitated by protein G agarose and subjected for Western blotting.
(§1) As Tiki proteins are related to bacterial proteins of unknown function, it was speculated that Tiki may antagonize Wnt signaling through a novel mechanism, possibly in an enzymatic fashion. Human Tiki2 was stably expressed in L cells or Wnt3a-expressing L cells (human Tiki1 was poorly expressed in L cells). […] In fact Wnt3a CM restored beta-catenin stabilization in Wnt3a-expressing cells that also expressed Tiki2 (FIG. 5A).

[1] = system: beta-catenin stabilization; assay: Beta-catenin stabilization in Wnt3a-expressing L cells, Western blotting; assay type: cell-based, mouse; settings: Wnt3a-producing L cells stably expressing human Tiki2
Description: Wnt3a CM rescued Tiki2 inhibition of beta-catenin stabilization in Wnt3a-expressing cells. Indicated cell lines were treated with control or Wnt3a CM for 2 hrs and whole cell lysates (WCL) were subjected for Western blotting. Beta-tubulin was a loading control.
as §1

Wnt3a [2] = molecular target: T2, Wnt3a (Mus musculus, UniProt P27467); assay: Triton X-114 phase separation of Wnt3a secreted from Tiki-expressing cells; assay type: cell-based; set-up: expressed in transfected cells; host or cells: mouse L cells (Wnt3a-expressing); HEK293T
From the text: FIG. 6A is a gel showing that Tiki inactivates Wnt3a by regulating Wnt3a acylation/palmitoylation. A Triton X-114 phase separation experiment is shown in 6A. […] T, total; Aq, aqueous; De, detergent.
FIG. 6B is a gel showing that Wnt3a secreted from Tiki1 or Tiki2 but not GFP-expressing HEK293T cells partitioned in the aqueous phase.
C77 palmitoylation is required for Wnt3a activity (Willert, K. et al., Nature 423, 448-452 (2003)) and binding to both Fz and LRP6 (Komekado, H. et al., Genes Cells 12, 521-534 (2007); Cong, F. et al., Development 131, 5103-5115 (2004)), while S209 acylation is critical for Wnt3a secretion (Takada, R. et al., Dev Cell 11, 791-801 (2006)). Thus Tiki proteins may affect C77 palmitoylation but not S209 acylation. The palmitate adduct at C77 is the primary contributor to Wnt3a hydrophobicity because palmitoylated Wnt3a is partitioned in the Triton X-114 detergent phase whereas Wnt3a lacking the palmitate is soluble in the aqueous phase (Willert, K. et al., Nature 423, 448-452 (2003); Komekado, H. et al., Genes Cells 12, 521-534 (2007)).

Wnt3a [3] = molecular target: T2, Wnt3a; assay: Acyl-biotinyl exchange (ABE) analysis of Wnt3a produced from Tiki2-expressing cells; assay type: cell-based; set-up: expressed in transfected cells; host or cells: mouse L cells (Wnt3a-expressing); HEK293T; settings: compared to Wnt3a from control cells
From the text: FIG. 6C is a gel showing the results of Acyl-biotinyl exchange (ABE) analysis of control Wnt3a or Wnt3a produced from Tiki2-expressing cells. Biotinylation of Wnt3a secreted from Tiki2-expressing cells was much reduced compared to that of Wnt3a from control cells.
Biotinylation of Wnt3a secreted in the presence of Tiki2 was much reduced compared to that of Wnt3a from control cells (FIG. 6C). This reduction of available thioester linkage indicates depalmitoylation of Wnt3a at a cysteine residue, e.g., C77, in the presence of Tiki2

T2 sequence (P27467 19-352): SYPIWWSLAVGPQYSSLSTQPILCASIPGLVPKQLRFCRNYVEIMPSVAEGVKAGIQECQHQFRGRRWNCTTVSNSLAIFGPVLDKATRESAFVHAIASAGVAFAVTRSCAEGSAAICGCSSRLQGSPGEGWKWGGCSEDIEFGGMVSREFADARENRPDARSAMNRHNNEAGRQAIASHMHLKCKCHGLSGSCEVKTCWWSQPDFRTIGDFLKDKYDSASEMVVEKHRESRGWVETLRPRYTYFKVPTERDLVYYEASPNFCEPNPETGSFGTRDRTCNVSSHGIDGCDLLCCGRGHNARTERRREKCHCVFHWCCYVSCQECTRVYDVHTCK

Binding of Wnt3a secreted from Tiki2-expressing cells to Fz (mFz8CRD-IgG) (mFz8CRD-IgG): failed to bind to either Fz or LRP6 | Biotinylation of secreted Wnt3a in ABE assay (Wnt3a [3]): much reduced
B1: Tiki2: Human Tiki2 (XP 371250/LOC388630) (SEQ ID NO:2), expressed in L or HEK293T cells (protein, listed as Homo sapiens)
chain: MHAALAGPLLAALLATARARPQPPDGGQCRPPGSQRDLNSFLWTIRRDPPAYLFGTIHVPYTRVWDFIPDNSKAAFQASTRVYFELDLTDPYTISALASCQLLPHGENLQDVLPHELYWRLKRHLDYVKLMMPSWMTPAQRGKGLYADYLFNAIAGNWERKRPVWVMLMVNSLTERDVRFRGVPVLDLYLAQQAEKMKKTTGAVEQVEEQCHPLNNGLNFSQVLFALNQTLLQQESVRAGSLQASYTTEDLIKHYNCGDLSAVIFNHDTSQLPNFINTTLPPHEQVTAQEIDSYFRQELIYKRNERMGKRVMALLRENEDKICFFAFGAGHFLGNNTVIDILRQAGLEVDHTPAGQAIHSPAPQSPAPSPEGTSTSPAPVTPAAAVPEAPSVTPTAPPEDEDPALSPHLLLPDSLSQLEEFGRQRKWHKRQSTHQRPRQFNDLWVRIEDSTTASPPPLPLQPTHSSGTAKPPFQLSDQLQQQDPPGPASSSAPTLGLLPAIATTIAVCFLLHSLGPS
Beta-catenin stabilization [1]: inhibited beta-catenin stabilization | Partitioning of secreted Wnt3a in Triton X-114 phase separation (Wnt3a [2]; HEK293T cells): partitioned exclusively in the aqueous phase | Partitioning of secreted Wnt3a in Triton X-114 phase separation (Wnt3a [2]; L cells): partitioned exclusively in the aqueous phase
